# According to PMC3842988 (Molecular Biology of the Cell, 2013):
# T1: FLAG-Htt103Q-GFP (Huntingtin with 103Q glutamine stretch, lacking the proline-rich region) (UniProt P42858 1-17)
# T1 chain: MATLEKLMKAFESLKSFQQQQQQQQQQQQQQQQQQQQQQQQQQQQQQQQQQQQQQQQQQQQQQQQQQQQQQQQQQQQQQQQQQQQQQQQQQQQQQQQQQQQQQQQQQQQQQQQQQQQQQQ
# Target: T1, FLAG-Htt103Q-GFP (Huntingtin with 103Q …)
# Assay: co-IP
row,Binder,"fold change of the co-precipitate, Sti1 elevated against endogenous Sti1"
1,Sis1 (type II Hsp40) (natural protein) MVKETKLYDLLGVSPSANEQELKKGYRKAALKYHPDKPTGDTEKFKEISEAFEILNDPQKREIYDQYGLEAARSGGPSFGPGGPGGAGGAGGFPGGAGGFSGGHAFSNEDAFNIFSQFFGGSSPFGGADDSGFSFSSYPSGGGAGMGGMPGGMGGMHGGMGGMPGGFRSASSSPTYPEEETVQVNLPVSLEDLFVGKKKSFKIGRKGPHGASEKTQIDIQLKPGWKAGTKITYKNQGDYNPQTGRRKTLQFVIQEKSHPNFKRDGDDLIYTLPLSFKESLLGFSKTIQTIDGRTLPLSRVQPVQPSQTSTYPGQGMPTPKNPSQRGNLIVKYKVDYPISLNDAQKRAIDENF,~4 fold
2,Ssa1 (Hsp70) (natural protein) not shown,> 2 fold
